From patent publication US20110200615A1 come the findings set out here.

Assay [1] deals with Botulinum neurotoxin type B, subtype B3 (BoNT/B3) (Clostridium botulinum). As to the kind of experiment: KinExA flow fluorimetry; IgG in solution. For orientation: Kinetic exclusion samples the free partner from a solution-phase mixture.
Assay [2] addresses Botulinum neurotoxin type B, subtype B4 (BoNT/B4) (Clostridium botulinum). The assay is described as follows: KinExA flow fluorimetry; IgG in solution.
Assay [3] has as its target Botulinum neurotoxin type B, subtype B3 (BoNT/B3) (Clostridium botulinum). The assay is described as follows: flow cytometry; yeast-displayed scFv, soluble toxin.
In assay [4] the target is Botulinum neurotoxin type B, subtype B4 (BoNT/B4) (Clostridium botulinum). Described as above.

Where only a bound is given, the exact number is not on record here.

B1: 2B23 IgG (antibody, V domains shown)
VH: EVQLLESGGGLVQPGGSLRLSCAASGFTFSNYPMSWVRQAPGKGLAWVSSLTASGDNTFYADSVKGRFTISRDNSNNTLYLQMHSLRAEDTAVYYCAKALVGRYDISTGYYRPVMDSWGQGTLVTVSS
VL: DIQMTQSPPSLSASVGDRVTITCRTSQGFTSALAWYQQKPGEPPKLLIYDASKLESGVPSRFSGSGSGTNFALTISSLQPEDFATYFCQQSNSYPLTFGGGTKVEIKR
The term Kd denotes the constant that tells how readily two partners part at equilibrium. Low values mean higher affinity, high ones lower affinity. As for B1, the values for the Kd in assay [1] and in assay [2] were 0.048 nM and 0.0552 nM, respectively.

B2: 1B18 IgG (antibody, V domains shown)
VH: EVQLVQSGGGLVQPGGSRRLSCAASGFYFNAYWMTWVRQAPGKGLEWVANINLDGTEIYYLDSVKGRFTVSRDNVKNSVFLQMSSLRVEDTAVYFCARLEWGGRNGWVSPWGQGTLVTVSS
VL: DVVMTQSPSSVSASVGDRVTITCRASQSISSYLNWYQQRPGKAPKLLIFAASSLQSAVPSRFSGSGSGTDFTLTISSLQPEDFATYYCQQSYSTPPTFGQGTKVEIKR
As to B2, the Kd in assay [1] came out at 0.972 nM; in assay [2], 0.021 nM.

B3: 2B27 scFv (yeast displayed) (scFv)
scFv: EVQLQESGPGLVKPSETLSVTCAVSGGSISSSNYSWAWIRQPPGKGLEWIGTMYYSGSTHYHPSLKSRVTISVDTSKSQLSLKLSSVTAADTAVYYCARRRLLGPSPYYFDYWGQGTLVTVSSGGGGSGGGGSGGGGSQSVVTQPPSVSGAPGQRVTISCSGSSSNIGAGYDVHWYQQLPGTAPKLLIYGNNNRPSGVPDRFSGSKSGTSASLAITGLQAEDEADYYCQSYDSSLSAYVFGTGTKLTVLG
As to B3, the Kd in assay [3] is 2.32 nM; in assay [4], 0.77 nM.

B4: 2B23 scFv (yeast displayed) (scFv)
scFv: EVQLLESGGGLVQPGGSLRLSCAASGFTFSNYPMSWVRQAPGKGLAWVSSLTASGDNTFYADSVKGRFTISRDNSNNTLYLQMHSLRAEDTAVYYCAKALVGRYDISTGYYRPVMDSWGQGTLVTVSSGGGGSGGGGSGGGGSDIQMTQSPPSLSASVGDRVTITCRTSQGFTSALAWYQQKPGEPPKLLIYDASKLESGVPSRFSGSGSGTNFALTISSLQPEDFATYFCQQSNSYPLTFGGGTKVEIKR
For the molecule B4, the Kd amounted to 0.25 nM in assay [3] and 0.19 nM in assay [4].

B5: 1B11 scFv (yeast displayed) (scFv)
scFv: QVQLLQSAGGVVQPGRSLRLSCAASGFIFRTYGMHWVRQAPGKGLEWVAFVSSDGNNKFYSDSVKGRFTIPRDNAKNTLYLQMNSLETEDTAVYYCAKDRYPIDCSGGSCFSYGMDVWGQGTTVTVSSGGGGSGGGGSGGGGSDIVMTQSPSTLSASVGDRVTVTCRASQSINSWLAWYQQKPGKAPKLLIYEASSLESGVPSRFSGSGSGTEFTLTISSLQPDDFATYYCQQYDSYWLTFGGGTKVEIK
Regarding B5, the Kd in assay [3] was found to be 4.43 nM.

B6: 2B25.1 IgG (antibody, V domains shown)
VH: QVQLQESGPGLVKPSQTLSLSCSVSGASITSGTFYWSWIRQHPGKDLEWIGYIYYSGTTYYNPSLKSRVTLSVDTSKNQFSLKVTSLTAADTAVYHCARGVPIYDSSGTYRGTYFDYWGQGTLVTVSS
VL: ESVLTQPPSVSAAPGQKVTISCSGSSSNIGNNYVSWYQQLPGTAPKLLIYDNNRRPSGIPDRFSGSKSGTSATLGITGLQTGDEADYYCGTWDSSLSEVVFGGGTKVTVLG
Regarding B6, the Kd in assay [1] is 0.0177 nM; in assay [2] it was 0.03 nM.

B7: B12.1 IgG (antibody, V domains shown)
VH: QVNLRESGGGVVQPGRSLRLSCAASGFTFSSYALHWVRQTPGKGLEWVALISYDGSNKYYADSVKGRFTISRDNSKNMLYLQMNSLRAEDTAVYYCAKDRSHYGDYVGYLDYWGQGTLVTVSS
VL: AYVLTQPPSVSVAPGKTAAITCEGNNVGNKNVHWYQQRPGQAPVLVVHDDSDRPSGIPERFSGSNSGNTATLTINRVEAGDEADYYCQVWDSSSAQWVFGGGTKLTVLG
Regarding B7, the Kd in assay [1] was found to be 0.0462 nM; in assay [2], 0.625 nM.

B8: B11E8 IgG (antibody, V domains shown)
VH: EVQLVQSGGGVVQPGRSLRLSCAASGFIFRTYGMHWVRQAPGKGLEWVAFVSSDGNNKFYSDSVKGRFTISRDNAKNTLYLQMNSLETEDTAMYYCAKDRYPIDCSGGSCFSYGMDVWGQGTTVTVSS
VL: EIVLTQSPATLSVSPGERATLSCRASQSVSKFLAWYQQKRGQAPRLLIYGASTRATGIPARFSGSGSGTEFALTISSLQSEDFADYYCQQYDNWPITFGQGTRLEIKR
As to B8, the Kd in assay [1] came out at 0.0156 nM.

B9: 2B24 scFv (yeast displayed) (scFv)
scFv: QVQLVESGGGVVQPGRSLRLSCAASGLTFSVYGMHWVRQAPGKGLEWVAVISHTGSEEYYADSVKGRFSISRDNSNNTLFLQMNSLRPEDTAVYYCVKDGPMAAIPFYYFDFWGQGTLVTVSSGGGGSGGGGSGGGGSQSVVTQPPSVSAAPGQKVTISCSGSSSNIGNNYVSWYQQLPGTAPKLLIYDNNKRPSGIPDRFSGSKSGTSATLGITGLQTGDEADYYCGTWDSSLSAGVFGGGTKLTVLG
Consider B9, for which the results for the Kd in assay [3] and in assay [4] were 4 nM and 0.72 nM, respectively.

B10: 1B10 scFv (yeast displayed) (scFv)
scFv: QVQLVESGGGVVQPGRSLRLSCAASGFTFSHYGMHWVRQSPGKGLEWVAVIWYDGRNPYYAASVKGRFTISRDNDKNTLYLQMNSLRAEDTAVYYCVKDLTRFHDTTFGVFEMWGPGTTVTVSSGGGGSGGGGSGGGGSEIVLTQSPSSLSASVGDRITITCRASQSISSWLAWYQQKPGKAPMVLIYKASSLENGVPSRFSGSGSGTEFTLTISSLQPDDFATYYCQQYSTYSRTFGQGTKVEIKR
With B10, the Kd in assay [3] is more than 5000 nM; in assay [4], 4.69 nM.

B11: 1B10.1 IgG (antibody, V domains shown)
VH: QVQLVESGGGVVQPGRSLRLSCAASGFTFSHYGMHWVRQSPGKGLEWVAVIWYDGRNPYYAASVKGRFTISRDNDKNTLYLQMNSLRAEDTAVYYCVKDLTRFHDTTFGVFEMWGPGTTVTVSS
VL: EIVLTQSPSFVSASVGDRVTITCRASQGISSWLAWYQQKPGKAPKLLIYAASSLQSGVPSRFSGSGSGTEFTLTISSLQPDDFATYYCQQYSSLYTFGQGTKVDIKR
B11: the Kd in assay [1] amounted to 1.2 nM; in assay [2] it was 0.00047 nM.

B12: 2B25 scFv (yeast displayed) (scFv)
scFv: QVQLQESGPGLVKPSQTLSLSCSVSGASITSGTFYWSWIRQHPGKDLEWIGYIYYSGTTYYNPSLKSRVTLSVDTSKNQFSLKVTSLTAADTAVYHCARGVPIYDSSGTYRGTYFDYWGQGTLVTVSSGGGGSGGGGSGGGGSQPGLTQPPSASGTPGQRVTISCSGSSSNVGSNTVNWYQQLPGTAPKLLIYRNDQRPSGVPDRFSGSKSGASASLAISGLRSEDEADYYCAAWDDSLNGLLFGGGTQLTVLG
For the molecule B12, the Kd in assay [3] is 0.93 nM; in assay [4], 0.68 nM.

B13: 1B18 scFv (yeast displayed) (scFv)
scFv: EVQLVQSGGGLVQPGGSRRLSCAASGFYFNAYWMTWVRQAPGKGLEWVANINLDGTEIYYLDSVKGRFTVSRDNVKNSVFLQMSSLRVEDTAVYFCARLEWGGRNGWVSPWGQGTLVTVSSGGGGSGGGGSGGGGSDVVMTQSPSSVSASVGDRVTITCRASQSISSYLNWYQQRPGKAPKLLIFAASSLQSAVPSRFSGSGSGTDFTLTISSLQPEDFATYYCQQSYSTPPTFGQGTKVEIKR
For the molecule B13, the Kd amounted to 3.04 nM in assay [3] and 1.7 nM in assay [4].
